Assay results reported in paper PMC12098869, “An mRNA-display derived cyclic peptide scaffold reveals the substrate binding interactions of an N-terminal cysteine oxidase” (Nature Communications, 2025).

T1: ADO-Y87F, biotinylated (pQE80L-Navi-ADO) (human, UniProt Q96SZ5 1-270, Y87F, biotin on the Avi tag)
T1 construct: Tag as in Dm1; source: E. coli Rosetta2(DE3), purified (Ni-NTA, SEC); not shown: Avi tag, N-terminal, kept; His6, N-terminal, kept
T1 sequence (looked up): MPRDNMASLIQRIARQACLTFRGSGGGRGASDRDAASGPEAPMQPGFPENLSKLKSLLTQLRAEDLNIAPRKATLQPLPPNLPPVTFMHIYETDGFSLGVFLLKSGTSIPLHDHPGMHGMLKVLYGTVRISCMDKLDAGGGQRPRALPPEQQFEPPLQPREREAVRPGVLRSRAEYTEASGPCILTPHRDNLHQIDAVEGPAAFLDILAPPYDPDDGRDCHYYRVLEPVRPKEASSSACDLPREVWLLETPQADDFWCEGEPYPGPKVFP

T2: ADO-F101A, biotinylated (pQE80L-Navi-ADO) (human, UniProt Q96SZ5 1-270, F101A, biotin on the Avi tag)
T2 construct: Tag as in Dm1; source: E. coli Rosetta2(DE3), purified (Ni-NTA, SEC); not shown: Avi tag, N-terminal, kept; His6, N-terminal, kept
T2 sequence (looked up): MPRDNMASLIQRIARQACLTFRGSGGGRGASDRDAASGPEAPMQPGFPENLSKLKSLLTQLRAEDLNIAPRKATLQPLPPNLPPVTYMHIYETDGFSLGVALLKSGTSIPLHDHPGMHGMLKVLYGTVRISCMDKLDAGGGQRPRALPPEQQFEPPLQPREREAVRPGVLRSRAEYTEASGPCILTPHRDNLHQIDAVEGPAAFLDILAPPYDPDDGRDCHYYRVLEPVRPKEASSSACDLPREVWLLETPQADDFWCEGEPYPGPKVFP

T3: ADO-I109A, biotinylated (pQE80L-Navi-ADO) (human, UniProt Q96SZ5 1-270, I109A, biotin on the Avi tag)
T3 construct: Tag as in Dm1; source: E. coli Rosetta2(DE3), purified (Ni-NTA, SEC); not shown: Avi tag, N-terminal, kept; His6, N-terminal, kept
T3 sequence (looked up): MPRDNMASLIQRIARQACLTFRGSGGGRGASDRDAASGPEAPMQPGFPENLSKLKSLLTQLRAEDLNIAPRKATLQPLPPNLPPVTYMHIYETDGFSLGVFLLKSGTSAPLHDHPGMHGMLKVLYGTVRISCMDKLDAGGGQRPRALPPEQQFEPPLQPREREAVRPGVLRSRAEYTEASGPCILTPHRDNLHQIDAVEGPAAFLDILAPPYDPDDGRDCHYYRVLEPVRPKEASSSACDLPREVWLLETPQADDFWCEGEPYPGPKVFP

T4: ADO-F256A, biotinylated (pQE80L-Navi-ADO) (human, UniProt Q96SZ5 1-270, F256A, biotin on the Avi tag)
T4 construct: Tag as in Dm1; source: E. coli Rosetta2(DE3), purified (Ni-NTA, SEC); not shown: Avi tag, N-terminal, kept; His6, N-terminal, kept
T4 sequence (looked up): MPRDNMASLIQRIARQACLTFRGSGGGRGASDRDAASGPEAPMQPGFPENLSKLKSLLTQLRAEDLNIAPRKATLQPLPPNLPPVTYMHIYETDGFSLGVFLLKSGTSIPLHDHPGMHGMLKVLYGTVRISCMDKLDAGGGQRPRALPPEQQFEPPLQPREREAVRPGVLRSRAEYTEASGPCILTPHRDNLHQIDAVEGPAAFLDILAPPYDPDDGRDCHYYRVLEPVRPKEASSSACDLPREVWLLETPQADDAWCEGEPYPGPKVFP

T5: ADO-D206E, biotinylated (pQE80L-Navi-ADO) (human, UniProt Q96SZ5 1-270, D206E, biotin on the Avi tag)
T5 construct: Tag as in Dm1; source: E. coli Rosetta2(DE3), purified (Ni-NTA, SEC); not shown: Avi tag, N-terminal, kept; His6, N-terminal, kept
T5 sequence (looked up): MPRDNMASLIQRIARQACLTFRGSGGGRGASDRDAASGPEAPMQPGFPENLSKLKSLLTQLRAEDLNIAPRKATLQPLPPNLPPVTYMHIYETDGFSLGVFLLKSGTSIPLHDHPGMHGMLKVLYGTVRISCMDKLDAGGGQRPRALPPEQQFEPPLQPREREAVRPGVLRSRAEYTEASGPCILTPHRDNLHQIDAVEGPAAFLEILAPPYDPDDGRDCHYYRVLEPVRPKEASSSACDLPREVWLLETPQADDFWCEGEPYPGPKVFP


Key:
Details in all cases: both partners purified
[1] = target: T1, ADO-Y87F, biotinylated (pQE80L-Navi-ADO); test: SPR; multi-cycle, equilibrium steady state affinity 1:1 binding model; biotinylated ADO or variant immobilised on a Biotin CAP chip (~2500-3000 RU), peptide injected; 4 °C; 20 mM HEPES pH 7.5, 500 mM NaCl, 10 mM DTT, 0.1% (v/v) tween-20; 50 μL/minute
Method in brief: (§1)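 Biotinylated full-length human ADO (wild type or engineered forms) was made in E. coli with a His tag, then purified by nickel affinity and gel filtration. It was captured on a Biotin CAP chip at about 2500–3000 RU in a Biacore T200, and peptides were flowed over it. The run was at 4 °C in HEPES pH 7.5 buffer with 500 mM NaCl, DTT and tween-20, at 50 μL/minute. Kd came from a 1:1 steady-state fit of multi-cycle equilibrium responses.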

[2] = target: T2, ADO-F101A, biotinylated …; test: as above
Method in brief: as §1

[3] = target: T3, ADO-I109A, biotinylated …; test: as above
Method in brief: as §1

[4] = target: T4, ADO-F256A, biotinylated …; test: SPR; single-cycle kinetics (SCK), 1:1 binding model; biotinylated ADO or variant immobilised on a Biotin CAP chip, peptide injected at 25.6, 64, 160, 400, 1000 nM; 4 °C; 20 mM HEPES pH 7.5, 500 mM NaCl, 10 mM DTT, 0.1% (v/v) tween-20; 50 μL/minute
[5] = target: T5, ADO-D206E, biotinylated …; test: as above

Kd [1] [nM]	Kd [2] [nM]	Kd [3] [nM]	Kd [4] [nM]	Kd [5] [nM]	Binder
320	37000	16000			CFPKVLSDDMKKLK (peptide, UniProt P24001 2-15, looked up, Interleukin 32 (IL32), residues 2-15, N-terminal Cys; also called IL32 peptide; source: synthetic peptide)
340	47000	1300	730	1100	CKGLAALPHSCLER (peptide, UniProt O15539 2-15, looked up, Regulator of G-protein signalling 5 (RGS5), residues 2 to 15, N-terminal Cys; also called RGS5 peptide; source: synthetic peptide)
